Results on one molecule are retold here after patent US20170114118A1 (NATIONAL INSTITUTE FOR BIOTECHNOLOGY I, published 2017).

For this assay, the target named is T1, TNF-like 1A (TL1A) (UniProt O95150 72-251).
T1 construct: Bought soluble TL1A; Biotinylated for yeast display, unlabelled in SPR and ELISA; also called TL1A cytokine
T1 sequence (looked up): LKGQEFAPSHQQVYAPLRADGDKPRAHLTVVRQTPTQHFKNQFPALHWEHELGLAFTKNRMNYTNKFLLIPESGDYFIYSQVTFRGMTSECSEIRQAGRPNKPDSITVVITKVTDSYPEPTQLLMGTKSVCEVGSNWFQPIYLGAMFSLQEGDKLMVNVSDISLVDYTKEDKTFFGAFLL
Description: flow cytometry of yeast displaying DR3 as Aga2 fusion, incubated with 0.2 uM biotinylated TL1A, detected with streptavidin-APC. On the procedure:
FIGS. 3A-B. Screening for improved DR3 mutants using yeast surface display (YSD). […] Expression and TL1A binding are detected by fluorescent antibodies and streptavidin, respectively. (B) Flow cytometry histogram analysis of cell population displaying WT DR3, DR3 mutant library after two rounds (R2) and three rounds of enrichment (R3) for binding to TL1A. Cell population that lacks surface display is shown in black. Analysis of cells was performed following incubation with 0.2 μM of TL1A.
Briefly, EBY100 cells transformed with plasmid pCTCON containing the desired clone were grown in SDCAA media (20 g […], 6.7 g yeast nitrogen base, 5 g casamino acids, 5.4 g Na2HPO4 and 8.56 g NaH2PO4*H2O) at 30° C. to logarithmic phase. Then, 2*10⁶ of cells were washed, resuspended in SGCAA induction media (similar to SDCAA but containing galactose instead of […]) and grown at 30° C. with shaking for an additional 18 hours. Induced cells (1*10⁶) were collected by centrifugation, washed with PBSF (PBS+1 g/L BSA) and incubated for 1 hour at […] with 0.2 μM TL1A (R&D Systems) that was biotinylated using biotin labeling kit (Pierce) according to manufacturer's procedure. […] The labeled cells were washed, resuspended with PBSF and analyzed by flow cytometry (FACS Calibur, BD).
A general note: In flow cytometry, cells or beads pass a laser one at a time.

B1: DR3 (receptor, human, UniProt Q93038 25-199, looked up)
receptor extracellular domain displayed on the yeast surface as an Aga2 fusion: QGGTRSPRCDCAGDFHKKIGLFCCRGCPAGHYLKAPCTEPCGNSTCLVCPQDTFLAWENHHNSECARCQACDEQASQVALENCSAVADTRCGCKPGWFVECQVSQCVSSSPFYCQPCLDCGALHRHTRLLCSRRDTDCGTCLPGFYEHGDGCVSCPTSTLGSCPERCAAVCGWRQ
notes: extracellular domain, wild type, Aga2 fusion on EBY100 yeast
On to B1, for which the binding result is given as “binds”.
